Reference: the RNAGym collection of RNA variant scans (doi:10.7554/elife.90254)

B1: LINE1-mini (parent)
chain: GGCAGAGCUCAACACAGCGUGGCAAAGUGGCUGUGGCUAGACUGCC

Variants of: B1
Experiment: self-cleavage, relative activity (ratio to wild type); higher = more cleavage; in vitro, sequencing; the parent is a self-cleaving ribozyme

Variant	self-cleavage
A4U C42U	0.14
A4G U32A	0.06
A4G U32G	0.08
A4G U32C	0.15
G5A A25G	0.14
G5A A25U	0.12
G5A A25C	0.07
G5A A6G	0.13
G5A A6C	0.2
G5A A6U	0.12
A4U U9G	0.07
A4U U9A	0.29
A4U U9C	0.07
A4G A39U	0.33
A4G A39C	0.06
A4G A39G	0.22
A4U G19U	0.15
A4U G19A	0.68
A4U G19C	0.05
A4G A11G	0.12
A4G A11C	0.04
A4G A11U	0.05
A4G G7C	0.15
A4G G7A	0.25

Variant	self-cleavage
A4G G7U	0.18
A4U A41C	0.11
A4U A41U	0.12
A4U A41G	0.05
A4G C15U	0.65
A4G C15A	0.08
A4G C15G	0.14
A4G U38G	0.04
A4G U38C	0.31
A4G U38A	0.23
A4U C37U	0.15
A4U C37A	0.16
A4U C37G	0.08
A4U C18G	0.08
A4U C18U	0.11
A4U C18A	0.07
A4G G17A	0.06
A4G G17C	0.5
A4G G17U	0.18
A4G C23G	0.41
A4G C23A	0.44
A4G C23U	0.5
A4U G30A	0.42
A4U G30U	0.22

Variant	self-cleavage
A4U G30C	0.21
A4U U43G	0.06
A4U U43C	0.03
A4U U43A	0.67
A4U G22A	0.16
A4U G22U	0.52
A4U G22C	0.08
A4G G5C	0.07
A4G G5U	0.16
A4G G5A	0.15
A4G A41C	0.19
A4G A41G	0.11
A4G A41U	0.3
A4C G30U	0.19
G5A A16G	0.07
G5A A16C	0.1
G5A A16U	0.07
A4U C31G	0.05
A4U C31A	0.05
A4U C31U	0.1
A4G G44U	0.16
A4G G44C	0.08
A4G G44A	0.48
A4U G27U	0.14

Variant	self-cleavage
A4U G27A	0.19
A4U G27C	0.17
A4G G19C	0.23
A4G G19U	0.56
A4G G19A	0.95
A4G A14G	0.2
A4G A14C	0.12
A4G A14U	0.24
A4G G33U	0.16
A4G G33C	0.07
A4G G33A	0.12
A4G U28G	0.3
A4G U28C	1.09
A4G U28A	0.13
A4U C8G	0.09
A4U C8A	0.23
A4U C8U	0.26
A4U U20G	0.09
A4U U20C	0.13
A4U U20A	0.12
G5A A12U	0.09
G5A A12C	0.04
G5A A12G	0.08
G5A A26C	0.18

Variant	self-cleavage
G5A A26U	0.19
G5A A26G	0.1
A4G G29A	0.36
A4G G29C	0.12
A4G G29U	0.63
A4U C46A	0.16
A4U C46G	0.12
A4U C46U	0.19
A4U U28C	0.32
A4U U28A	0.19
A4U U28G	0.17
A4G G36C	0.16
A4G G36U	0.09
A4G G36A	0.54
A4C U43C	0.08
A4C U43A	0.06
A4C U43G	0.17
G5A C15A	0.1
G5A C15U	0.11
G5A C15G	0.05
A4U	0.29
A4G	0.5
A4G A26G	0.48
A4G A26U	0.39

Variant	self-cleavage
A4G A26C	0.63
A4U G29U	0.23
A4U G29A	0.2
A4U G29C	0.24
G5A C13A	0.15
G5A C13U	0.15
G5A C13G	0.08
G5A	0.16
A4C G33A	0.29
A4C G33U	0.06
A4C G33C	0.04
G5A A11G	0.03
G5A A11U	0.04
G5A A11C	0.03
G5A A14C	0.09
G5A A14U	0.1
G5A A14G	0.13
A4U G36A	0.12
A4U G36U	0.08
A4U G36C	0.07
A4C U28G	0.18
A4C U28C	0.22
A4C U28A	0.07
A4U C23A	0.16

Variant	self-cleavage
A4U C23U	0.41
A4U C23G	0.37
A4U A11C	0.04
A4U A11U	0.04
A4U A11G	0.04
A4G C10U	0.22
A4G C10G	0.05
A4G C10A	0.06
A4G C13G	0.2
A4G C13A	0.27
A4G C13U	0.23
A4G U43C	1.34
A4G U43G	1.35
A4G U43A	0.12
A4G G27C	0.24
A4G G27A	0.4
A4G G27U	0.31
A4G G40U	0.15
A4G G40A	0.13
A4G G40C	0.1
A4G C37A	0.06
A4G C37G	0.07
A4G C37U	0.13
